Assay results taken from a protein production outcome set (Wang et al. 2014).

Experiment: label from the status in PepcDB records
For “IDSGLSPSVLMASNSGRRSAPPLNLTGLPGTEKLNEKEKELCQVVRLVPGAYLEYKSALLNECHKQGGLRLAQARALIKIDVNKTRKIYDFLIREGYITKA”, the protein production was “not failed”.
In the case of “IEDCWLAYATAGTLNEDKSNAILIPTWYSGTHQTWFQQYIGTDHALDPSKYFIISINQIGNGLSVSPANTADDSISMSKFPNVRIGDDVVAQDRLLRQEFGITELFAVVGGSMGAQQTYEWIVRFPDQVHRAAPIAGTAKNTPHDFIFTQTLNETVEADPGFNGGEYSSHEEVADGLRRQSHLWAAMGFSTEFWKQEAWRRLGLESKESVLADFLDPLFMSMDPNTLLNNAWKWQHGDVSRHTGGDLAAALGRVKAKTFVMPISEDMFFPVRDCAAEQALIPGSELRVIEDIAGHLGLFNVSENYIPQIDKNLKE”, the protein production is reported as “failed”.
In the case of “IFIGNLDPEIDEKLLYDTFSAFGVILQTPKIMRDPDTGNSKGYAFINFASFDASDAAIEAMNGQYLCNRPITVSYAFKKDSKG”, the protein production is reported as “not failed”.
For “IFLDSNMSLDVVWHVYSNMMSPEIEQFSNSVPKSPIRELLELEPETAKFGKPEKLADGRRVRVTVDVFCKGTFRGIGRNYRIAKCTAAKCALRQLKKQGLIAKKD”, the protein production was “failed”.
In the case of “IGNVQYYLGFNLYDSRTKITKYDNEVGLLGKDSDDNLIYRKGMELGEIWGYTTDRLYTTEDFDSQGKLKNNIPKVEGYNPNPGDILYVDFDGNGIINNGKNTSNEPGDTRIIGNDTRRYQYGIRGGATWKGISLSFILQGVGKRDLWLMNELFYPHYDAYSTLFDSQLNYWTPEHTNSYFPRLYEKAEGNTKANQKPQTRFLQNGAYLSIRNISLSYTFPIKLIKPLGITNLSVFFGGENLFTFDHLPKGIDAERVVTDNLGQRGFTYPYMRQFSFGINLSL”, the protein production is reported as “failed”.
For “IHFTTEVITSRIEPANRYVAEKLRITPGQDILYLERLRSIGDEKAMLIENRINIELCPGIVEIDFNQHNLFPTIESLSKRKIRYSESRYAARLIGNERGHFLDISEDAPVLHLEQLVFFSRELPVEFGNVWLKG”, the protein production was “failed”.
With “IIAKKTNDIQQDIILHSEFANRHGLIAGATGTGKTVTLKVMAESFSRIGVPVFLADAKGDVSSIAKAGSDNPKFDARIKSLGIESIPFAASPTIFWDLFGEQGHPIRTTISEIGPLLLAQMLNLNDTQEGVLSALFRIADDQGLLLIDFKDLKAMLSYVSENAADLKAEYGNLSPASIGAIQRNLLALGDQGGEQFFGEPSLNILDFIQTDSNGHGYINVLAADKLMNTPKLYATFLLWMLSELFEQLPEVGDLDKPKLVFFFDEAHLLFDNASPALQQKIEQVVRLIRSKGVGIYFITQNPLDLPESVLGQLGNRVQHALRAFTPKDQKAVKTAADTFRANPEFKVDQAITELAVGEALISCLDEQGTPQIVERGWVMPPYSSFSPLSPQERQAFMAQSIVAGVYENAVDRDSAYEMLQRKVNESTAQQQAQAEAKQQEANAKQQAKEQERLAREQQKAEEKAQRDREKLTQDVIGTFAKSAARTLGGPTGQKLVRGLLGSLFGKR” the protein production was “failed”.
In the case of “ILARTKIFPWFFDLKRNKMLIDAHWFSYLGIPAGDCEITIEKFFSRVHPNERDMLADALQKQLSEKEIPDSFSYRLQRGDGSWEWFSEQSMYLSKTNDGSPYRIVGVCHSIQEHKNT”, the protein production is reported as “failed”.
With “ILWSQFLKFKEMELPAKEADKNRSKGIYQSLEGAVQAGQLKVPPGYHPLDVEKEWGKLHVAILEREKQLRSEFERLECLQRIVTKLQMEAGLCEEQLHQADALLQSDIRLLAAGKVPQRAGEVERDLDKADSMIRLLFNDVQTLKDGRHPQGEQMYRRVYRLHERLVAIRTEYNLRLK” the protein production was “failed”.
In the case of “IRQARDLLVASMRNPPSLELLAQKTGLNVRKLNLGFRRMYRATAYGFLQEYRLEQAYKLISSGEMSVSQAAYHVGYGAAHFATVFRKRFGVSPSRLR”, the protein production is reported as “failed”.
For “ISPGAAGGAEDGFFVPPTKGTSPTQIWCNNSQLPVDHILAGSFETAMRLLHDQVGVIQFGPYKQLFLQTYARGRTTYQALPCLPSMYGYPNRNWKDAGLKNGVPAVGLKLNDLIQRLQLCYQLTTVGKFEEAVEKFRSILLSVPLLVVDNKQEIAEAQQLITICREYIVGLSVETERKKLPKETLEQQKRICEMAAYFTHSNLQPVHMILVLRTALNLFFKLKNFKTAATFARRLLELGPKPEVAQQTRKILSACEKNPTDAYQLNYDMHNPFDICAASYRPIYRGKPVEKCPLSGACYSPEFKGQICRVTTVTEIGKDVIGLRISPLQFR”, the protein production was “failed”.
With “ISSDEALKLIKEQPQLFDEYHDGFRSQVQAWPENPVDVFVDQIRYRCMKPVNAPGGLPGLKDSKEIVIADMGCGEAQLALEINNFFKNYNKKAKKYLKRRHKVHSFDLKKANERITVADIRNVPLPDESCTIVVFCLALMGTNFLDFIKEAYRILAPRGELWIAEIKSRFSDGKGNEFVDALKLMGFFHKKTFDENKMFTRFEFFKPPAEIIEERRQ” the protein production was “failed”.
For “IVAGFTSIPSQGDNMPAYHARPKQSDGPLPVVIVVQEIFGVHEHIRDICRRLALEGYLAIAPELYFREGDPNDFADIPTLLSGLVAKVPDSQVLADLDHVASWASRNGGDVHRLMITGFCWGGRITWLYAAHNPQLKAAVAWYGKLTGDKSLNSPKQPVDIATDLNAPVLGLYGGQDNSIPQESVETMRQALRAANAKAEIIVYPDAGHAFNADYRPSYHAESAKDGWQRMLEWFTQY”, the protein production was “failed”.
In the case of “IVISAFEQTLWRSEPETPLKVYQLLSGAHYRTSPLDLRRMMDAPGQHFLQAAGENEIAGALCLVDEGGLSQELSQAVWAGYRRPRGNLVAQSLAAHGSNPLAATLRGRRVSRIAVHPARQREGTGRQLIAGALQYIHDLDYLSVSFGYTEELWRFWQRCGFVLVRMGNHREASSGCYTAMALLPM”, the protein production is reported as “failed”.
For “KDNTKVIAHRGYWKTEGSAQNSIRSLERASEIGAYGSEFDVHLTADNVLVVYHDNDIQGKHIQSCTYDELKDLQLSNGEKLPTLEQYLKRAKKLKNIRLIFELKSHDTPERNRDAARLSVQMVKRMKLAKRTDYISFNMDACKEFIRLCPKSEVSYLNGELSPMELKELGFTGLDYHYKVLQSHPDWVKDCKVLGMTSNVWTVDDPKLMEEMIDMGVDFITTDLPEETQKILHSRAQ”, the protein production was “not failed”.
In the case of “KDPLLNSLIYVSRYYGLANSPEALVNGLPLSDGKLTPFLLPRAAERAGLVAKENRAELEKISSLILPAILVLKGGDSCVLNSINMETREAEVTTLESGMVPISIPLEDLLEQYTGRYFLVKKQFR”, the protein production is reported as “failed”.
In the case of “KERERLEEKLEDANERIAELVKLEERQRIARDLHDTLGQKLSLIGLKSDLARKLIYKDPEQAARELKSVQQTARTSLNEVRKIVSSMKGIRLKDELINIKQILEAADIMFIYEEEKWPENISLLNENILSMCLKEAVTNVVKHSQAKTCRVDIQQLWKEVVITVSDDGTFKGEENSFSKGHGLLGMRERLEFANGSLHIDTENGTKLTMAIPNNSK”, the protein production is reported as “not failed”.
In the case of “KIMIAALDYDPGDGQMGGQGKGRLALRAGDVVMVYGPMDDQGFYYGELGGHRGLVPAHLLDHMSLHGH”, the protein production is reported as “not failed”.
In the case of “KMMVLYNETSGSSESKEIAERFKKAAEARGEAVILQPSNPDIDPEEMRKNAKENQVGVLVVIGGDGTIHHAVQNFKDTIRDYQIGIIPGGTVNNFARVLSIPLKEEDAFETILAGQTTPVDFGMVNQD”, the protein production is reported as “not failed”.
In the case of “KNRLGTKALNFTYTLDSGVKGTLYQFPAEYTLLFINNPGCHACAEMIEGLKASPVINGFTAAKKLKVLSIYPDEELDEWKKHRNDFAKEWTNGYDKELVIKNKNLYDLRAIPTLYLLDKNKTVLLKDATLQKVEQYLAE”, the protein production is reported as “not failed”.
With “KNVNNAEEYWDVIDLRVYPGKNGYFELYDDDGITYEYEKGKYYIIPITWDEDKQELTIGKKRGELEMSKKIIKIIWVEKGKGIEHTKPDVEIEYNGKETITVKRG” the protein production was “failed”.
In the case of “KPKDIKYVVEESKFKDLREILEFMLKDAVQKLDMFLDMLNYSKPKVDVGDEVIEIKKDNVIEALKLFKDEYEVSKKHIPVPVYTYLIKRNILFLNPIEGILKPQSYLVWNAIKRLL”, the protein production is reported as “failed”.
In the case of “KPSQEGGKGGSEKPKRPVSAMFIFSEEKRRQLQEERPELSESELTRLLARMWNDLSEKKKAKYKAREAALKAQSERK”, the protein production is reported as “not failed”.
For “KREHFRDDYLYRFYQYGDTHSKIPSNLYKVLARKLDMISASENINDLRSPPANHLELLEPKENKIYSIRVNKQYCLIFKYENNEVNNLYLDPH”, the protein production was “failed”.
For “KSHSRTLTPTPDGKTMLRPVLRLTSAMTREVATDHKAFYVLFTWDQEAQIYELVAQTVSERKNWCALITETAGSLKV”, the protein production was “failed”.
With “KSNEIVELSVQKWINELRDANNKLQQEVSELKKKEVNLESSLSLLSSTLESTAIGIVAINFEGDILNYNQKFAEMWKLPQQLILSKKCPRCKAFFEGQMKDPETFNRLIWAVSSTSNIESYDVLELKDGRVFAHYSQPQWLGQ” the protein production was “failed”.
For “KSTVEKSTVGQKVAIVREDTGTIAELAEKALGNMVDIVYAGSDLKEAEEAVKKEKAPAIIVIPKGFSQSLESGEKARLEIVWYLRGTGLSEAVSTGTISSLIESLKVQLASFLLNDPKKAQLLFDPLEIVQHTYLRGSLFKNHSPEAIMNVFYSQN”, the protein production was “not failed”.
With “KTGQLLPKSPAARYEAIQWLMFQMGGVGPMFGQLGFFHKFAGKDYEDKRPRDRYVAESRRLLQVLEGRMAGRAWIMGDEYTIADIAIWPWVRNLVGFYGAGELVGFDDFPNIQRVVQAFAERPAVARGLAIPARD” the protein production was “failed”.
In the case of “KTIFVIVPTNEEQVAFLEALAKQDELNFDWQNPPTEPGQPVVILIPSDMVEWFLEMLKAKGIPFTVYVEEGGSENLYFQ”, the protein production is reported as “not failed”.
With “KVGLIIISHGRIATETVNVVKELLGVKFPVAIDMPLDEKPINIYNKAVELSKIIDQGKGILFLVDIGSLTNIGQIVNKRTNISTKTIDRVDLLMALEATRKVSMGEEELDEIFFSLLKDRMGYNYELEKHIDKS” the protein production was “failed”.
In the case of “KYYWNNVNYDPATLFSASCLLFYVLDAIIFEHHLSSSFELQHEGYGCLLLLRYAATPYLLTAVTKYFYEQRVPISCWYAPLAVAALLSLGLLVKRFSCAYKYKYRLNSQSPIFANIETIHTYQGSRLLLSGMWGWVRQPNYLGDIVALLALAAPMALRPAWPPVLGLSLIILLLLHRATRANARNQARYHSSWQRYSTQVRSYILPRVY”, the protein production is reported as “failed”.
In the case of “LAAMSIDLGSQFIKIGLVKPGVPMDIVLNKESRRKTPNVISFKNDERFFAEAAAAMSSSHPQSSYNFLLSMIARKEGDDAFVTFQKTFPFTAFEFDEVRKTVVFPYKEEKYNVETLLAMILWNAKKVTEAYADQTVKDVVITVPIFLNQAERRAIASAAEIAGLNLLQLLNDGSAAALNYGVFRRKEITEKPTHMLIYDMGAVKTTATIVQYVLESTRKDGKDKQPTLRTVGVGFDKTLGGLEITNRLRDHLEKVFRDTVKTSKDISTNARAIGKLHKEAERVKQVLSANKDTYAQVESLFEEQNFRAKVTREELEKMIEDLEPRIAAPILDAIGMAQISTNDIDLVVLMGAGTRVPKVKEILKTILKDKEISNFLNTDEAIAMGAVYQAAHLSKSFKVLPFNVHEKILYPVFVNFLTKTEEGTMKPIRKSLFGENYPVPNRVMHFSSYSDDFKIDIQDADKNPLSTVEISGVKDAIEKEVTDE”, the protein production is reported as “failed”.
